# From patent publication US20090092595A1, “Suppression of sPLA2-integrin binding for treating an inflammatory condition” (REGENTS OF THE UNIVERSITY OF CALIFORNIA, priority 2007, published 2009)
# B1: wt sPLA2-IIA (secretory phospholipase A2 group IIA) (enzyme)
# chain: NLVNFHRMIKLTTGKEAALSYGFYGCHCGVGGRGSPKDATDRCCVTHDCCYKRLEKRGCGTKFLSYKFSNSGSRITCAKQDSCRSQLCECDKAAATCFARNKTTYNKKYQYYSNKHCRGSTPRC
# modifications: FITC label in the flow cytometry assay only (sites not given) ; FITC label (sites not given) in the flow cytometry assay only; the other assays used unlabelled protein.
# notes: the form is read from the printed primers; also called FITC-sPLA2-IIA; FITC-labeled sPLA2-IIA; not shown: N-terminal vector-encoded residues with the His tag from the PET28a/amp vector (insert in the Bam HI site)
# B2: sPLA2-IIA H47Q mutant (catalytically inactive) (enzyme, human, UniProt P14555 21-144, looked up)
# chain: NLVNFHRMIKLTTGKEAALSYGFYGCHCGVGGRGSPKDATDRCCVTQDCCYKRLEKRGCGTKFLSYKFSNSGSRITCAKQDSCRSQLCECDKAAATCFARNKTTYNKKYQYYSNKHCRGSTPRC
# notes: mature; the printed positions appear to count on the mature protein, not on the precursor entry P14555; also called H47Q sPLA2-IIA; not shown: N-terminal vector-encoded residues with His tag from the PET28a/amp vector
# B3: sPLA2-IIA R74E/R100E mutant (integrin-binding-defective) (enzyme, human, UniProt P14555 21-144, looked up)
# chain: NLVNFHRMIKLTTGKEAALSYGFYGCHCGVGGRGSPKDATDRCCVTHDCCYKRLEKRGCGTKFLSYKFSNSGSEITCAKQDSCRSQLCECDKAAATCFAENKTTYNKKYQYYSNKHCRGSTPRC
# notes: mature; the printed positions appear to count on the mature protein; not shown: N-terminal vector-encoded residues with His tag from the PET28a/amp vector
# B4: R74E: sPLA2-IIA mutant, Arg-74 mutated to Glu (protein)
# chain: NLVNFHRMIKLTTGKEAALSYGFYGCHCGVGGRGSPKDATDRCCVTHDCCYKRLEKRGCGTKFLSYKFSNSGSEITCAKQDSCRSQLCECDKAAATCFARNKTTYNKKYQYYSNKHCRGSTPRC
# modifications: left off: small tags and cut ends
# notes: sPLA2-IIA mutant, Arg-74 mutated to Glu
# B5: R100E: sPLA2-IIA mutant, Arg-100 mutated to Glu (protein)
# chain: NLVNFHRMIKLTTGKEAALSYGFYGCHCGVGGRGSPKDATDRCCVTHDCCYKRLEKRGCGTKFLSYKFSNSGSRITCAKQDSCRSQLCECDKAAATCFAENKTTYNKKYQYYSNKHCRGSTPRC
# modifications: left off: small tags and cut ends
# notes: sPLA2-IIA mutant, Arg-100 mutated to Glu
# B6: R42E: sPLA2-IIA mutant, Arg-42 mutated to Glu (protein)
# chain: NLVNFHRMIKLTTGKEAALSYGFYGCHCGVGGRGSPKDATDECCVTHDCCYKRLEKRGCGTKFLSYKFSNSGSRITCAKQDSCRSQLCECDKAAATCFARNKTTYNKKYQYYSNKHCRGSTPRC
# modifications: left off: small tags and cut ends
# notes: sPLA2-IIA mutant, Arg-42 mutated to Glu
# B7: R53E: sPLA2-IIA mutant, Arg-53 mutated to Glu (protein)
# chain: NLVNFHRMIKLTTGKEAALSYGFYGCHCGVGGRGSPKDATDRCCVTHDCCYKELEKRGCGTKFLSYKFSNSGSRITCAKQDSCRSQLCECDKAAATCFARNKTTYNKKYQYYSNKHCRGSTPRC
# modifications: left off: small tags and cut ends
# notes: sPLA2-IIA mutant, Arg-53 mutated to Glu
# B8: H47Q: catalytically inactive mutant of sPLA2-IIA, His-47 mutated to Gln (protein)
# chain: NLVNFHRMIKLTTGKEAALSYGFYGCHCGVGGRGSPKDATDRCCVTQDCCYKRLEKRGCGTKFLSYKFSNSGSRITCAKQDSCRSQLCECDKAAATCFARNKTTYNKKYQYYSNKHCRGSTPRC
# modifications: left off: small tags and cut ends
# B9: R74E/R100E: integrin-binding-defective combined mutant of sPLA2-IIA, Arg-74 and Arg-100 mutated to Glu (protein)
# chain: NLVNFHRMIKLTTGKEAALSYGFYGCHCGVGGRGSPKDATDRCCVTHDCCYKRLEKRGCGTKFLSYKFSNSGSEITCAKQDSCRSQLCECDKAAATCFAENKTTYNKKYQYYSNKHCRGSTPRC
# modifications: left off: small tags and cut ends
# Assays:
# [1] = Bradley et al. 2005; cited from earlier work
# [2] = Bowton et al. 2005; cited from earlier work
# [3] = molecular target: integrin αvβ3 on CHO cells expressing recombinant αvβ3 (β3-CHO) and on proteoglycan-deficient pgs745 cells (β3-745) (human) (UniProt P05106); assay: cell adhesion to coated sPLA2-IIA, 7E3 at 10 µg/ml in the medium; about the background level
# soluble integrin αvβ3 = molecular target: T1, soluble integrin αvβ3 (Homo sapiens, UniProt P05106+P06756); assay: Binding of soluble αvβ3 to immobilized sPLA2-IIA (ELISA-type assay); settings: immobilized protein, 20 μg/ml coating
# T1 construct: Recombinant soluble αvβ3 was synthesized as previously described; made in house
# Method: Binding of soluble αvβ3 to immobilized sPLA2-IIA sPLA2-IIA was immobilized to wells of 96 well microtiter plates and the remaining protein-binding sites were blocked by BSA as described (Mori, S. et al., J Biol Chem, 283:18066-18075 (2008)). Soluble recombinant αvβ3 at 5 μg/ml in Hepes-Tyrodes buffer supplemented with 1 mM MnCl2 was added to the well and incubated for 2 h. Bound αvβ3 was measured using anti-integrin β3 (mAb AV-10) followed by HRP-conjugated goat anti-mouse IgG and peroxidase substrates.
# integrin α4β1 = molecular target: T2, integrin α4β1 (Homo sapiens, UniProt P05556+P13612); assay: Adhesion of α4-K562 cells (recombinant α4β1) to immobilized sPLA2-IIA; assay type: cell-based; settings: data not shown
# T2 construct: K562 cells have endogenous α5β1; expressed in transfected cells; host or cells: K562
# Method: FIG. 5. sPLA2-IIA binding to integrin α4β1. a) Cells expressing recombinant α4β1 adhered to wt sPLA2-IIA better than cells expressing other recombinant integrins. We used transfected K562 cells clonally express different human integrins for adhesion assays. Low background adhesion to BSA was subtracted. […] Wells of 96-well microtiter plate were coated with VCAM-1 and FN-GST, and incubated with U937 cells (1×10^4 cells/plate) in the presence of the increasing concentrations of sPLA2-IIA for 1 h at 37° C. Adherent cells were quantified using endogenous phosphatase after gently rinsing the well to remove unbound cells. Data is shown as means+/−SEM of triplicate experiments. *P=0.0101 and **P<0.0001 by t-test. c) Amino acid sequence in the α4 subunit that is critical for VCAM-1 and CS-1 binding is also critical for sPLA2-IIA binding. CHO cells that clonally express wt or mutant α4 (Irie, A. et al., Embo J, 14(22): 5550-5556 (1995)) were used for adhesion assays. Data is shown as means+/−SEM of triplicate experiments. Similar results were obtained using K562 cells expressing α4 mutants (not shown).
# Other methods We performed docking simulation of interaction between sPLA2-IIA and integrin αvβ3 using the AutoDock3 as previously described (Mori, S. et al., J Biol Chem, in press (2008)). […]
# [4] = molecular target: T3, integrin α4β1 on K562 cells expressing recombinant α4β1 (α4-K562) and on U937 human monocytic lymphoma cells (human, UniProt P13612 34-1032; P05556 21-798); assay: cell adhesion of α4-K562 cells to coated sPLA2-IIA
# T3 construct: whole, on cells; Recombinant α4 in K562 cells; endogenous α4β1 in U937 cells; Treated as one molecule (human α4β1 on cells); also called α4-K562 cells; U937 cells (α4β1+)
# [5] = molecular target: T4, recombinant soluble integrin αvβ3 (UniProt P06756 31-992; P05106 27-718); assay: SPR (Biacore), soluble αvβ3 amine-coupled to CM5 chip, sPLA2-IIA injected, 1 mM Mn2+, 1:1 binding with drifting baseline model
# T4 construct: Soluble heterodimer; whole entries named only; also called soluble αvβ3; soluble recombinant αvβ3
# Method: (§4) The mutant proteins were tested for binding to soluble integrin αvβ3.
# (§5) Surface plasmon resonance study Recombinant soluble integrin αvβ3 was immobilized to Biacore Sensor chip CM5 (Biacore, Piscataway, N.J.) by the standard amine coupling method. […] Then the sensor chip was washed with the running buffer alone at the same flow rate for another 5 min (the dissociation phase). Two consecutive one-minute injections of 0.5 M, pH 8 EDTA solution at the same flow rate were used to regenerate the chip for another cycle of injection. The resonance unit elicited from the reference flow cell was subtracted from the resonance unit elicited from the integrin flow cell to eliminate the non-specific protein-flow cell interaction and the bulk refractive index effect. The recorded binding curves were fitted with the “1:1 binding with drifting baseline model” by using the Biaevaluation Version 4.1.
# [6] = molecular target: T4, recombinant soluble integrin αvβ3; assay: SPR (Biacore), soluble αvβ3 amine-coupled to CM5 chip, mutant injected, 1 mM Mn2+, 1:1 binding with drifting baseline model
# Method: as §4, §5
# [7] = PLA2 activity by arachidonoyl-Thio-PC hydrolysis; assay type: biochemical; settings: effect of mutation on catalytic activity
# Method: Other methods We performed docking simulation of interaction between sPLA2-IIA and integrin αvβ3 using the AutoDock3 as previously described (Mori, S. et al., J Biol Chem, in press (2008)). Adhesion assays were performed as described previously (Eto, K. et al., J. Biol. Chem., 277:17804-17810 (2002)). mAb 7E3 was used at 10 μg/ml. We assayed PLA2 activity by arachidonoyl-Thio-PC hydrolysis (Cayman Chemicals, Ann Arbor, Mich.) as described (Reynolds, L. J. et al., Anal. Biochem., 217:25-32 (1994)).
# [8] = tested on: U937 human monocytic lymphoma cells; assay: Proliferation of U937 cells (MTS assay); assay type: cell-based; settings: serum-starved 48 h, treated 48 h
# Method: (§1) U937 cells (αvβ3+, α4β1+) were plated in wells of 96-well plates (10,000 cells/well), and serum-starved for 48 h. After treatment with wt or mutant sPLA2-IIA for 48 h, we measured cell proliferation by MTS assays. […] U937 cells were serum-starved for 24 h, and stimulated with wt and mutant sPLA2-IIA (0.5 μg/ml) for 10 min at 37° C. Cell lysates were analyzed by western blotting with anti-phospho ERK1/2 or anti-ERK1/2 antibodies. The blot is representative of three independent experiments.
# (§2) Cell proliferation and MAP kinase activation K562 cells and human monocytic lymphoma U937 cells were maintained in RPM11640 medium supplemented with 10% FCS. Cells were plated in 96-well plates (1×10^4 cells/well), and serum-starved for 48 h at 37° C. in 5% CO2 atmosphere. Cells were then treated with or without sPLA2-IIA in medium without serum for 48 h. Cell proliferation was determined by MTS assays using the Aqueous Cell Proliferation Assay Kit (Promega). For MAP kinase activation assays, cells were serum starved in RPMI1640 medium supplemented with 0.4% FCS for 24 h, and stimulated with Wt and mutant sPLA2-IIA (0.5 μg/ml) for 10 min at 37° C. ERK1/2 activation was measured as described (Mori, S. et al., J Biol Chem, in press (2008)).
# ERK1/2 = assay: MAP kinase (ERK1/2) activation in U937 cells, western blotting; assay type: cell-based, human; settings: 0.5 μg/ml, 10 min, 37° C.
# Method: as §1, §2
# α4-K562 cells = assay: Proliferation of α4-K562 cells (MTS assay); assay type: cell-based, human; settings: serum-starved 48 h, stimulated 48 h
# Method: (§3) Cells were serum-starved for 48 h and stimulated with sPLA2-IIA for 48 h. Cell proliferation was determined by MTS assays. Data is shown as means+/−SEM of triplicate experiments. α4- and αvβ3-K562 cells proliferated faster than mock-K562 cells. […] Serum-starved cells were stimulated with wt or mutant sPLA2-IIA (0.5 μg/ml) for 48 h. Data is shown as means+/−SEM of triplicate experiments. α4-K562 and αvβ3-K562 cells grew faster than mock K562 cells with wt and H47Q sPLA2-IIA (*P<0.05 by t-test).
# as §2
# αvβ3-K562 cells = assay: Proliferation of αvβ3-K562 cells (MTS assay); assay type: cell-based, human; settings: serum-starved 48 h, stimulated 48 h
# Method: as §3, §2
# T4 sequence (P06756 31-992, chain 1 of 2): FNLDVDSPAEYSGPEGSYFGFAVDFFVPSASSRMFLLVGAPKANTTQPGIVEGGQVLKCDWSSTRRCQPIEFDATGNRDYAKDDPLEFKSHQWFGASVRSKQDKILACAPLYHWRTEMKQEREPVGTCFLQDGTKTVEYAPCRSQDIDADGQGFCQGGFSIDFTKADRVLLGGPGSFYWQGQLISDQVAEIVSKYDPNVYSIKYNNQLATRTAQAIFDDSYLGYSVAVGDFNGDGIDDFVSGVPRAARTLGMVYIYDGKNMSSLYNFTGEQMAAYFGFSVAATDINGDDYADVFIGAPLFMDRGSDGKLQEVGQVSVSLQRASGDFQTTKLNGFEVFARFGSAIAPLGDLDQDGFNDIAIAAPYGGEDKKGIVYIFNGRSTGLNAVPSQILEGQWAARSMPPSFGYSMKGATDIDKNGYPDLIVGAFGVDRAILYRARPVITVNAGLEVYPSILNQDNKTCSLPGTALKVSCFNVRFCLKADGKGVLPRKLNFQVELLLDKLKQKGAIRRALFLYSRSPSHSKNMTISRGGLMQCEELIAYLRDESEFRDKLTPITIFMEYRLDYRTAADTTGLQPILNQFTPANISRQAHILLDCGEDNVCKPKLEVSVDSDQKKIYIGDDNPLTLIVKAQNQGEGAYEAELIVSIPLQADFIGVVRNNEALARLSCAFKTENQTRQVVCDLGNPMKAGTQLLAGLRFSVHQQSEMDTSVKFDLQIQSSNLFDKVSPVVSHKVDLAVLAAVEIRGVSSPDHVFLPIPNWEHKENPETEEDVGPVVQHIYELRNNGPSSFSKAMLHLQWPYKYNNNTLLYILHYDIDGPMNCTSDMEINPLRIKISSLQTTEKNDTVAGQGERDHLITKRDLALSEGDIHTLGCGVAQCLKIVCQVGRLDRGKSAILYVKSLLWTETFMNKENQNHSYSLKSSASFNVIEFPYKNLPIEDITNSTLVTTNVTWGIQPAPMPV
# T4 sequence (P05106 27-718, chain 2 of 2): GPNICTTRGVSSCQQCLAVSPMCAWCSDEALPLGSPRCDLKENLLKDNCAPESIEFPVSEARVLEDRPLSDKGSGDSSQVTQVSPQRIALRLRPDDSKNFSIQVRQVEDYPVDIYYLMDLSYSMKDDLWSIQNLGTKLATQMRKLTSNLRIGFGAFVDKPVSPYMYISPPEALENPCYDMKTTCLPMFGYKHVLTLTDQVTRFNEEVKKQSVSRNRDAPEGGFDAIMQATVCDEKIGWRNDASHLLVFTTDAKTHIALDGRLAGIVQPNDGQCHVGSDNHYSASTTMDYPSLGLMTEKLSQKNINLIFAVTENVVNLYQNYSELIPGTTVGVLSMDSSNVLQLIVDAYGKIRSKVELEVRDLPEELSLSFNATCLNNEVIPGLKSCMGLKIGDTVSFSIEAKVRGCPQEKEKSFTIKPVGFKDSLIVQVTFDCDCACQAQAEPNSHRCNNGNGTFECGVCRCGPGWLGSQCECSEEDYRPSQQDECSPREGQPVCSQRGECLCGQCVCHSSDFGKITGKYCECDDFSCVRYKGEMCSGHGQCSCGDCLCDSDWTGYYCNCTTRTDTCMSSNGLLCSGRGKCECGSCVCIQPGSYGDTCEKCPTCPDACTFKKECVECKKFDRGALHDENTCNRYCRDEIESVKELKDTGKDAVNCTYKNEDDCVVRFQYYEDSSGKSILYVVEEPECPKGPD
# T1 sequence (P06756 31-992 limits assumed): as the sequence (P06756 31-992, chain 1 of 2) above
# T1 sequence (P05106 27-718 limits assumed): as the sequence (P05106 27-718, chain 2 of 2) above
# Sequence of integrin αvβ3 on CHO cells expressing recombinant αvβ3 (β3-CHO) and on proteoglycan-deficient pgs745 cells (β3-745) (human) (P05106 27-788): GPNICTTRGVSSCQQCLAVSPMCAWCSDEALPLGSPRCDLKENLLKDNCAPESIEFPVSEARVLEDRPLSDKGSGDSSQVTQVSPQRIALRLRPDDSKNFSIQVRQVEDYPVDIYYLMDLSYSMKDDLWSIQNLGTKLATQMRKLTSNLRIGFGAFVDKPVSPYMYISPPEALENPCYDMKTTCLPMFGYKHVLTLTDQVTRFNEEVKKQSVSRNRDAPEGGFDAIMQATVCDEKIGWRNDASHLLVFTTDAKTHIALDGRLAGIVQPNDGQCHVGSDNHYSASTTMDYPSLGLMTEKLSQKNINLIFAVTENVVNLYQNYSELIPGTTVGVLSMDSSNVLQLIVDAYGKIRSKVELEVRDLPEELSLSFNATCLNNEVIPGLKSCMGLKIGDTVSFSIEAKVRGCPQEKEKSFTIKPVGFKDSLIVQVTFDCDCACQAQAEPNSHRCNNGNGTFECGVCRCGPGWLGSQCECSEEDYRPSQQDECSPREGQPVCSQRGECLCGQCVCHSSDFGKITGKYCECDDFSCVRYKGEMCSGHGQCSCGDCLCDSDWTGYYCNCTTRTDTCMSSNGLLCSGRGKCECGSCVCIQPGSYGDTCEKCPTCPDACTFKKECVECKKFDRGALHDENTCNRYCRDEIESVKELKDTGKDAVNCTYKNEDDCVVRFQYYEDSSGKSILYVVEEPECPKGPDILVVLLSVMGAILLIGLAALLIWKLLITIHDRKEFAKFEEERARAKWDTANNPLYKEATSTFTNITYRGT
# T2 sequence (P13612 34-1032): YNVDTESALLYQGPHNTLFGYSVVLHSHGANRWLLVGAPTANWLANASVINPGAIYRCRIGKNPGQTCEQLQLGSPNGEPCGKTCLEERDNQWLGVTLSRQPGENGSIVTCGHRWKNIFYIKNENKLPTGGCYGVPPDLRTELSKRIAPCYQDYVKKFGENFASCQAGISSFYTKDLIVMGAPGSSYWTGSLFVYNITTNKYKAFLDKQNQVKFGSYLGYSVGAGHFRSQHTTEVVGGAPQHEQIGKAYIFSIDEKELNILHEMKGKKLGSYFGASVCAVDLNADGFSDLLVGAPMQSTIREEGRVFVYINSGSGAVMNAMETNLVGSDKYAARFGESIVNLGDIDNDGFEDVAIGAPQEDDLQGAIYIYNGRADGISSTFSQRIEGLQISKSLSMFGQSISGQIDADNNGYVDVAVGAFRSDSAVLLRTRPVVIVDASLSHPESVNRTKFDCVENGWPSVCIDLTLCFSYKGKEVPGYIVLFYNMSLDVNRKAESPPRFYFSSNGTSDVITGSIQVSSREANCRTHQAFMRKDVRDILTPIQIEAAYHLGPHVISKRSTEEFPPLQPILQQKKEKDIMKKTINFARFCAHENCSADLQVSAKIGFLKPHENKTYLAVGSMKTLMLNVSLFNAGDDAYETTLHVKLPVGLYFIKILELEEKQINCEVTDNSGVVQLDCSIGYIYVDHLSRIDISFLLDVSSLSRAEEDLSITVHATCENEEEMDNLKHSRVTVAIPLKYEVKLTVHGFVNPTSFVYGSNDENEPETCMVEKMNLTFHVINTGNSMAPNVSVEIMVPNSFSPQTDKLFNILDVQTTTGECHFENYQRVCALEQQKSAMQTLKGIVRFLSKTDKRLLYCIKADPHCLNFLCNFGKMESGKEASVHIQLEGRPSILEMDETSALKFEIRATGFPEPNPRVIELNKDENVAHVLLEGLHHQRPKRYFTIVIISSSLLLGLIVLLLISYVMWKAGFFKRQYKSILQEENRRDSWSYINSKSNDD
# T2 sequence (P05556 21-798): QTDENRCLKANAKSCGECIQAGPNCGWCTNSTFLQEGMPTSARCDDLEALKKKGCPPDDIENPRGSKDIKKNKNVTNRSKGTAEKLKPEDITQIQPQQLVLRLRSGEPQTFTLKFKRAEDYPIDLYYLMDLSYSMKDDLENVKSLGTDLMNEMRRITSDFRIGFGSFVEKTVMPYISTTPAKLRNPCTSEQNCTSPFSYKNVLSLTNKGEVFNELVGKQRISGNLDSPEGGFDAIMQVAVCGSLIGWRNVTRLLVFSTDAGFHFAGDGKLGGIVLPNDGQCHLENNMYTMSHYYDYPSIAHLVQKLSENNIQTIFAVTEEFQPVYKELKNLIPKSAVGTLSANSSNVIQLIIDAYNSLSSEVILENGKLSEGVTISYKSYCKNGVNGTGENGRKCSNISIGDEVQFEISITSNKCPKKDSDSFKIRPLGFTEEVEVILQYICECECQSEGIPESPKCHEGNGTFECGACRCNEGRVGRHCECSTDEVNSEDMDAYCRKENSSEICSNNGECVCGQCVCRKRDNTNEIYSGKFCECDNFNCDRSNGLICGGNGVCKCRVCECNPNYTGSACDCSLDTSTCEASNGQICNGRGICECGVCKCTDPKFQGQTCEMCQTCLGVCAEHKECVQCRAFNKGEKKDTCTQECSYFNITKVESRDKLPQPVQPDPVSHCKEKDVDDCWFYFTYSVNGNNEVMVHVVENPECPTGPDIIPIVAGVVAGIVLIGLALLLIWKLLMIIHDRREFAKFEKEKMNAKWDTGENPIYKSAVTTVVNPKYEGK
# T3 sequence (P13612 34-1032, chain 1 of 2): as the sequence (P13612 34-1032) above
# T3 sequence (P05556 21-798, chain 2 of 2): as the sequence (P05556 21-798) above
molecule,measurement,setting,value
CCc1c(C(=O)C(N)=O)c2c(OCC(=O)[O-])cccc2n1Cc1ccccc1.[Na+] [S-5920/LY315920Na],therapeutic effect in rheumatoid arthritis,[1],failed to demonstrate a significant therapeutic effect
same,therapeutic effect in asthma,[2],failed to demonstrate a significant therapeutic effect
"mAb 7E3 (specific to human β3 subunit, function blocking) (antibody)",adhesion of β3-CHO cells to immobilized sPLA2-IIA in the presence of the antibody (%),[3],30%
"disintegrin domain of ADAM15: a known αvβ3 ligand, positive control [reference compound]",binding to soluble αvβ3,soluble integrin αvβ3,bound
CCc1c(C(=O)C(N)=O)c2c(OCC(=O)OC)cccc2n1Cc1ccccc1 [S-3013/LY333013],therapeutic effect in rheumatoid arthritis,[1],failed to demonstrate a significant therapeutic effect
same,therapeutic effect in asthma,[2],failed to demonstrate a significant therapeutic effect
"Cc1ccccc1NC(=O)Nc1ccc(CC(=O)N[C@@H](CCCCNC(=O)/C=C/c2cccnc2)C(=O)N[C@@H](CCCC(=O)O)C(=O)NC2(C(N)=O)CCCCC2)cc1 [LLP2A, reference compound]",blocking of α4β1 binding to sPLA2-IIA in transfected K562 cells,integrin α4β1,did not block
B1,binding result,[4],binds
same,Kd,[5],211 nM
B2,Kd,[6],44.7 nM
B3,Kd,[6],1080 nM
B4,binding to soluble αvβ3,soluble integrin αvβ3,reduced the binding
B5,binding to soluble αvβ3,soluble integrin αvβ3,reduced the binding
B6,binding to soluble αvβ3,soluble integrin αvβ3,little or no effect
B7,binding to soluble αvβ3,soluble integrin αvβ3,little or no effect
B8,binding to soluble αvβ3,soluble integrin αvβ3,did not affect the binding
same,PLA2 activity,[7],reduced PLA2 activity
same,proliferation of monocytic U937 cells,[8],induced robust proliferation
same,ERK1/2 activation in U937 cells,ERK1/2,induced
same,proliferation of α4-K562 cells,α4-K562 cells,induced proliferation
same,proliferation of αvβ3-K562 cells,αvβ3-K562 cells,induced proliferation
B9,binding to soluble αvβ3,soluble integrin αvβ3,effectively reduced the binding
same,PLA2 activity,[7],did not affect PLA2 activity
same,proliferation of monocytic U937 cells,[8],did not
same,ERK1/2 activation in U937 cells,ERK1/2,did not induce
same,proliferation of α4-K562 cells,α4-K562 cells,did not induce proliferation
same,proliferation of αvβ3-K562 cells,αvβ3-K562 cells,did not induce proliferation
